In a protein production outcome set (Wang et al. 2014) one finds protein production data, which are given here for 13 sequences.

The nature of this series: label from the status in PepcDB records.
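Further: failed if final PepcDB status was selected cloned or expressed and not failed if soluble or beyond.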

Consider “MNFFTSPFSGIPLDQQVTNPNIIVGKHSYYSGYYHGHSFDDCVRYLHPERDDVDKLVIGSFCSIGSGAVFMMAGNQGHRSDWISTFPFFYQDNDNFADARDGFTRSGDTIIGHDVWIGTEAMIMPGVKIGHGAIIASRSVVTKDVAPYEVVGSNPAKHIKFRFSDVEIAMLLEMAWWNWPESWLKESMQSLCSSDIEGLYLNWQSKART”, for which the protein production result was “not failed”. Then “MNFGEAVSSFFRNYVNFSGRASRSEFWYSYLFIIIVGVILVIVDTIVKNEIISSIWNLAALLPTLAMTTRRLHDINRSGWHQLLAWFIPVGSIALIIWYCKKSDDTVTLSEIERVFR”, with “failed”; and “MNFPHMIPYNAPYYFVLLIAALLPMILTLAIKGTRWPWYQTLVTLVFLYISFGGEFWQQGVALIVYVIYQTLLTWGYAAYRKNKNAGWVFYLAVFLAILPLVWVKVSPFMTGKTTLLGFLGISYLTFKAVQVVMDLRDGVMKEYHPFRYIQFLLFFPTISSGPIDRYRRFEKDLKNPPSAEKYLDFLEKGIFYLFLGFLYKFIISHYLGGVFLPHVEKMALAQGGLSWWTVGYMYNYSLYLFFDFAGYSLLAVGTSYLMGYDTPMNFNKPFLSWNIKEFWNRWHMTLSFWFRDYIYMRLMFFLMKKKVFKSRIVTSNIGYFALFLIMGIWHGLTWFYIAYGLYHATLICVTDAWLRFKKKHKDKIPSNKFTHAFAVFLTFQAVCVSFLIFSGFLDKLWFK”, with “not failed”; and “MNFPIDEKLIREKQNELHIKDLGMASIRDLVALVTNLEKATGTKFCRMEMGVPGLPAPQIGIETEIQKLREGVASIYPNLDGLPELKQEASRFAKLFVNIDIPARACVPTVGSMQGCFVSFLVANRTHKNREYGTLFIDPGFNLNKLQCRILGQKFESFDLFEYRGEKLREKLESYLQTGQFCSIIYSNPNNPTWQCMTDEELRIIGELATKHDVIVIEDLAYFGMDFRKDYSHPGEPLYQPSVANYTDNYILALSSSKAFSYAGQRIGVLMISGKLYEREYPDLEESFGRLRFGEALSSSALYALSSGATHSAQWGMAAMLKACNDGEYNFRDSVIEYGRKARIMKKMFLDNGFNIVYDKDGNEPLADGFYFTVGYKGMDSSKLIEKFVRYGMCAITLKTTGSKRNEAMRICTSLLPESQFPDLEKRLQMLNAEG”, with “not failed”. As for “MNFVTLTSDEFNAFTTKHFSHYTQSAIHYNHRVDLKGDVHLVGVKDDNGQVIAGCLLTEARTLKFFKYFYTHRGPVMDYTNQSLVAFFFKALTSYLKKHNCLYVLVDPYLIENLRNADGEIVKSYDNRAFVRTMDKLGYKHQGFPVGYDSMSQIRWLSVLDLKDKTEDQLLKEMDYQTRRNIKKTYDIGVKTKTLTIDETQTFFDLFHMAEEKHGFKFRELPYFEEMQKLYDDHAMLKLAYIDLNEYLKTLQLKQQQLTAELSGVEEALEESPNSKKNKTKRTQLEQQLNSNKRKIDNTIEQIEQDGAVLNLASALFIYNEHEVYYLSSGSNPKYNAYMGAYHLQWEMIKFAKAHHIDRYNFYGITGDFSESSEDYGVQQFKKGFNAHVEEYIGDFIKPIKPLLYKVQTYLNHKRR”, the protein production entry is on record as “failed”. For the sequence “MNGAVDLVIRFLLFAMLHSIAALPGVQQRIGNMFPRGFRFYRAAYNLAALVTFGWVMAAWPLSPVIYLVPGSASLAFHAVQAFTLLQMIRCVSRTGMADFLGIRHPSREDAAHELVTTGCYGTVRHPLYTLAMVFCLFNPLMTVKWLLFTLMAGGYFVMGAVVEERRLEREFGDAYRSYRRQVPMLIPRRRKPVAKE”, the protein production result was “failed”.

As to “MNGDSKPYPLIVQQVMLFTTHPAHGVKAGMAKALHMIHAGRKVLVFIALLVSASLAMADVAIPPLKARVTDLTGTLSANEATQLEQKLAAFEARKGSQIAVLIVSTTQPETIEQYSIRVVDAWKLGRKGIDDGVLLLVAKQDRTVRVEVGYGLEGVLPDAVAKRITDEIIVPEFRQGRFAAGINAGVDRIIGVIEGEPLPPPPARSARGGDSSAAADILVNNIIFVFILLFIAAKVFQSIFGRFLGATLLSTAAAIIVWLVFASIFLALIAAAFAFFISLFGHAGSGIYRGGRGWPGGFGGYGGWGGRGGPGGFGGGGGFGGGGGGFGGGGASGRW”, the protein production result was “failed”. For “MNGFIPIIASIAISLPLLIFGSHSDVKKRSINSFTFLPIFILALAFYILDKDVVMSIVTILSTVAVFIKPNIYVYIVLPLIIIGIGFFDTINLLTILIVGMFLLTGFGELLFGIGDIKGIVSVVLLFSSIPRFNNYIPFSIVFVFFIAVASGGALLYFVVYARLNGLKLRGLNVLYDEHEYLRNTIKYQLKDTNSGKVMIYRVPFLVPILVSTVLSLIAQLIIYASIHT”, the protein production entry is reported as “failed”.

As to “MNGGKTAVIVLGWNGAADTLACLASLAKVRQPAFTVILADNGSTDGTVGLVRQAFPEVEILELGRNLGFAAGNNAAFRSLRGRGFDRVVFLNNDTVVDPGFLQPLLDELQKPWVGIAAPKILYMDDPGRIWYAGGVLESATGLIEHTGIRQPDGPRFDTPEPVWYATGCCLAMRCRVFEEVGGFDERFRMYGEDVDLSMKVRERGLIVMYQPASRIWHRVSASSGGEMNLGKQLRKSGAAMMLFAKHGMIGGLVLYPLLLPFRALLGLLRFQFFRWTSSQEREEA”, the protein production result is given as “failed”. Take “MNGGTFTTGKEKERAGIYFNFKTTAQERVSLSERGTVALPVASSWGEAKTFVSISSVEDLNKKVGLSIDDPSLLLLREAKKNAKTVLMYRLTEGVRASADIAEGVKATAVYGGTKGNDIIIRINQNVLDANSFDVTTYMDESEVDKQTVKKAEELTANGYVTFTGTGDLSSTIPLTGSEGDTAAETLNASAGIRLSGGTDKAPVNSDYTDFLAAAETESFDVIALPVAEGDQLKATFAAFIKRLRDGQGQKVQGVTANYAGDYEGIINVTEGVLLEDGTEVTPDKATAWVAGASAGATFNQSLTFVEYEGAVDVLHRLDHDTIVERLGKGEFLFTFDARDKSVSVEKDINSLVTFTAEKNKKFAKNKIVRVLDAVNNDLTRELKALIKSRKGSGSDIPASEDGLQYVKTMITQYMTTLQDAGGITGFDSDEDITISMNEDRDGFLIDLLYSLSTQQKNSTLMWRLEHHHHHH”: the protein production entry is “not failed”. In the case of “MNGRRTIGEDGLVFGLVVIVALVAAVVVGTVLGHRYRVGPPVLLILSGSLLGLIPRFGDVQIDGEVVLLLFLPAILYWESMNTSFREIRWNLRVIVMFSIGLVIATAVAVSWTARALGMESHAAAVLGAVLSPTDAAAVAGLAKRLPRRALTVLRGESLINDGTALVLFAVTVAVAEGAAGIGPAALVGRFVVSYLGGIMAGLLVGGLVTLLRRRIDAPLEEGALSLLTPFAAFLLAQSLKCSGVVAVLVSALVLTYVGPTVIRARSRLQAHAFWDIATFLINGSLWVFVGVQIPGAIDHIAGEDGGLPRATVLALAVTGVVIATRIAWVQATTVLGHTVDRVLKKPTRHVGFRQRCVTSWAGFRGAVSLAAALAVPMTTNSGAPFPDRNLIIFVVSVVILVTVLVQGTSLPTVVRWARMPEDVAHANELQLARTRSAQAALDALPTVADELGVAPDLVKHLEKEYEERAVLVMADGADSATSDLAERNDLVRRVRLGVLQHQRQAVTTLRNQNLIDDIVLRELQAAMDLEEVQLLDPADAE”, the protein production result is given as “failed”.

“MNGSADAGPRPRKYVFITGGVVSSLGKGILTSSLGALLRARGYRVTAIKIDPYVNVDAGTMRPYEHGEVFVTADGAETDLDIGHYERFLDMDLSRGNNLTTGQVYLSVIQKERRGEYLSQTVQVIPHITDEIKERIRKVAEEQKAEIVVVEVGGTVGDIESLPFLEAIRQFRFDEGEGNTLYLHLTLVPYLETSEEFKTKPTQHSVATLRGVGIQPDILVLRSARPVPEEVRRKVALFTNVRPGHVFSSPTVEHLYEVPLLLEEQGLGRAVERALGLEAVIPNLSFWQEAVRVLKHPERTVKIAIAGKYVKMPDAYLSLLEALRHAGIKNRARVEVKWVDAESLEAADLDEAFRDVSGILVPGGFGVRGIEGKVRAAQYARERKIPYLGICLGLQIAVIEFARNVAGLKGANSTEFDPHTPHPVIDLMPEQLEVEGLGGTMRLGDWPMRIKPGTLLHRLYGKEEVLERHRHRYEVNPLYVDGLERAGLVVSATTPGMRGRGAGLVEAIELKDHPFFLGLQSHPEFKSRPMRPSPPFVGFVEAALAYQERA”: the protein production result is “not failed”. In the case of “MNGSEFVPLSLTPLLIGVLAAVACALPGNFLVLRRQALIGDAISHVVLPGIVVAFLLTGAIAAWPMMLGAAGAAVVAVVLIEAIRRLGRIEPGAAMGVVFTTMFAAGVLLLEQTDTSTVHLDVEHALYGNLESLIWLDATGWASLLDPVALAGLPVELSRILVTLVGVVGFIWLFWRPLKLSTFDEGFARTLGIRTNLLGLALVIVAAVAAVAAFDAVGSIIVIAMFICPPAAARMMTNTLEGQVGWSVVFAILSAVLGYVLAGYGPLWLGARDAVSAAGMIATMSGLILALTARFGPCRSRTGAPVQA”, the protein production result is “failed”.
